According to article PMC7958122, “Insulin-Like Growth Factor Binding Protein-3 Exerts Its Anti-Metastatic Effect in Aerodigestive Tract Cancers by Disrupting the Protein Stability of Vimentin” (Cancers, 2021):

Target: T1, recombinant IGFBP-3 protein (rBP3) of the in vitro binding assays with vimentin domains (human, UniProt P17936 28-291)
T1 construct: IGFBP-3, human, recombinant protein; by the pull-down methods it may be the purified His-IGFBP-3; source: recombinant
Assay: pull-down; in vitro binding: glutathione-agarose-bound GST-vimentin (full-length, domains or deletion mutants) incubated with purified recombinant IGFBP-3 or its C-terminal domain; TNE binding buffer, 4 °C; Western blot
Settings: both partners purified

T1 sequence (P17936 28-291): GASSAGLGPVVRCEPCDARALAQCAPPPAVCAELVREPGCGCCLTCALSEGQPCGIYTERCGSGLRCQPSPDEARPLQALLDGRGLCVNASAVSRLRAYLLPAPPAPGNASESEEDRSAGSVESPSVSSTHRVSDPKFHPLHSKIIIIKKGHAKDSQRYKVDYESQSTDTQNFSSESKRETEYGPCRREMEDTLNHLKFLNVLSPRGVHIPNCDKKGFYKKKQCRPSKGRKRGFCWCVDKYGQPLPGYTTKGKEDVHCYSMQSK

binding result	Binder
binds	GST-tagged head domain of vimentin (1-101 aa) (domain or fragment, human, UniProt P08670 1-101, looked up, vimentin, human, head domain, residues 1-101; source: bacterial expression (pGEX-4T-2), recombinant) MSTRSVSSSSYRRMFGGPGTASRPSSSRSYVTTSTRTYSLGSALRPSTSRSLYASSPGGVYATRSSAVRLRSSVPGVRLLQDSVDFSLADAINTEFKNTRT
binds	GST-tagged vimentin coiled-coil domain deletion mutant ΔCC (1-101 linked with 411-467 aa) (domain or fragment, human, UniProt P08670 1-466, looked up, vimentin, human, head domain (1-101) ligated to tail domain (411-467 as printed); source: bacterial expression (pGEX-4T-2), recombinant) MSTRSVSSSSYRRMFGGPGTASRPSSSRSYVTTSTRTYSLGSALRPSTSRSLYASSPGGVYATRSSAVRLRSSVPGVRLLQDSVDFSLADAINTEFKNTRTISLPLPNFSSLNLRETNLDSLPLVDTHSKRTLLIKTVETRDGQVINETSQHHDDLE
